Results on two substances are retold here after article PMC7229152.

The target of assay [1] is Act88F^WT Drosophila indirect flight muscle (IFM) actin, filamentous (F-Act88F^WT) (Drosophila melanogaster) (UniProt P83967).
Assay [2] addresses Act88F^M305L Drosophila indirect flight muscle (IFM) actin, filamentous (F-Act88F^M305L) (Drosophila melanogaster).

porcine cardiac tropomyosin (Tpm), sequence (P42639 whole entry): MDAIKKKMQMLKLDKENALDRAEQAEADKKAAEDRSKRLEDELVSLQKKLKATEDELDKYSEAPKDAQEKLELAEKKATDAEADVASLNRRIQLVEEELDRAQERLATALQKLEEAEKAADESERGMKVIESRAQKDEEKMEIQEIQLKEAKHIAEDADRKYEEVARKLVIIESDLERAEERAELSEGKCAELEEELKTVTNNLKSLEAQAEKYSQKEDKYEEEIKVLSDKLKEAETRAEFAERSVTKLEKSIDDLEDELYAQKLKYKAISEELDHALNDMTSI
rabbit psoas myosin, sequence (Q28641 whole entry, looked up): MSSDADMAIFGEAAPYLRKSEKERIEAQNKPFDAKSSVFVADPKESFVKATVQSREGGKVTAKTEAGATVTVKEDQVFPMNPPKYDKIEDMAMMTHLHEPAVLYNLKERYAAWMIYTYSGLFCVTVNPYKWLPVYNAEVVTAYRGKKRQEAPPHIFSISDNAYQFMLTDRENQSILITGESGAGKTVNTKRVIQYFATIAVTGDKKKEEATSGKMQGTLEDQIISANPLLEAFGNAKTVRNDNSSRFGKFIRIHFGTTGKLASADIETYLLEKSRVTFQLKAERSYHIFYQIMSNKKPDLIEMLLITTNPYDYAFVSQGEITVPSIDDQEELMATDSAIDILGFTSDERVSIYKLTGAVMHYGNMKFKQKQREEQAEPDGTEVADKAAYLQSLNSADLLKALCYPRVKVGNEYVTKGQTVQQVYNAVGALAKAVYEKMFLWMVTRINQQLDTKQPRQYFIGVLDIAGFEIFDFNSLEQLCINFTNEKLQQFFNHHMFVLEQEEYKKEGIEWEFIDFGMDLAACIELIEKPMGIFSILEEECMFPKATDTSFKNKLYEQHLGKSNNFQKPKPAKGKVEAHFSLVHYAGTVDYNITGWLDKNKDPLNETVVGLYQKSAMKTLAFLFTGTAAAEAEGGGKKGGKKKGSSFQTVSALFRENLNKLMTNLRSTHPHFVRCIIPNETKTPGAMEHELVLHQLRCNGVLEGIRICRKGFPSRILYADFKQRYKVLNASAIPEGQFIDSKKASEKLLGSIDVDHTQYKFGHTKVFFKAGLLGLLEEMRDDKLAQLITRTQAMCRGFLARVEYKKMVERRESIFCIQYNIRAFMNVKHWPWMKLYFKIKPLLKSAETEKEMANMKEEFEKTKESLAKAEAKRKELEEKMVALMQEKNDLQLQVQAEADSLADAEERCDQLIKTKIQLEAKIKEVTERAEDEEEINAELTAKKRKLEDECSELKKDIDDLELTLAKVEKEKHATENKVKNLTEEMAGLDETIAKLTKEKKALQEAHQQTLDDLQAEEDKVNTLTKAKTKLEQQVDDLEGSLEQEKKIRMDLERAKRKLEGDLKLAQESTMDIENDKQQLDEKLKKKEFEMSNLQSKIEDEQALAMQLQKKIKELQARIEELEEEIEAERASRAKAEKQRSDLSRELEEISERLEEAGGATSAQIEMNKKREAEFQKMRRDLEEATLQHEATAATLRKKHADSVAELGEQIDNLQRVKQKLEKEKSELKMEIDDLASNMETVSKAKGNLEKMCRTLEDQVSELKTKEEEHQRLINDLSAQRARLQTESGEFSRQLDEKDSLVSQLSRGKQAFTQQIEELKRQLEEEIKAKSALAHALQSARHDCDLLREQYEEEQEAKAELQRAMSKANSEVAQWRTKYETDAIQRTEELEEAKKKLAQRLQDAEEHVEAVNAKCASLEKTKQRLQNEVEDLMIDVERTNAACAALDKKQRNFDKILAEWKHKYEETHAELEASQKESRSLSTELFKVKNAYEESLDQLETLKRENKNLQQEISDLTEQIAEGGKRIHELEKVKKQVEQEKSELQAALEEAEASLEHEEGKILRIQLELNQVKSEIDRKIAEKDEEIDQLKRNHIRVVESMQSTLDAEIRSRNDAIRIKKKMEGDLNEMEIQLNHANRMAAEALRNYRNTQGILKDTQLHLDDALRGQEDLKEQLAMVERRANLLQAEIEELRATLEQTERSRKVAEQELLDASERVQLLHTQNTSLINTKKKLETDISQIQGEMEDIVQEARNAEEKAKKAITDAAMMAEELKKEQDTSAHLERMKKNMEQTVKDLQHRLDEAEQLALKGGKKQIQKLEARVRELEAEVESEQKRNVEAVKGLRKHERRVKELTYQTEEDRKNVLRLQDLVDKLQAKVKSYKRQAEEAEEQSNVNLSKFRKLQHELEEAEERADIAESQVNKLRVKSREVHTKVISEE

Turning to “porcine cardiac tropomyosin (Tpm) (from UniProt P42639 1-284) (natural protein)”, in assay [1], the Filaments moving (%) in in vitro motility at 30 °C with 300 nM Tpm, rabbit psoas myosin 12.5 to 100 µg ml^-1 (14.96 to 62.87 %) is 62.9%. The substance further displayed a Filaments moving (%) in in vitro motility at 30 °C with 300 nM Tpm, rabbit psoas myosin 12.5 to 100 µg ml^-1 (21.17 to 71.16 %) in assay [2] of 71.2%.

For the substance “rabbit psoas myosin (from UniProt Q28641 1-1938) (complex)”, the Filaments moving (%) in in vitro motility at 30 °C without Tpm, rabbit psoas myosin 12.5 to 100 µg ml^-1 (31.02 to 68.11 %) in assay [1] was determined as 68.1%. For the same substance, the Filaments moving (%) in in vitro motility at 30 °C without Tpm, rabbit psoas myosin 12.5 to 100 µg ml^-1 (32.57 to 68.00 %) in assay [2] was 68%.
